Laboratory results from patent US20210139892, “COMPOSITIONS AND METHODS FOR DELIVERY OF RNA TO A CELL” (The Regents of the University of California, published 2021).

Assays:
[1] = molecular target: T1, U1A N-terminal RNA-binding domain (Y31H, Q36R; exact Cys variant used in BLI not stated) (Homo sapiens, UniProt P09012 SEQ:2-98); experiment: BLI; biotin-Cas9 noSL RNP immobilised; 0.1-1 uM U1A; no substantial binding; details: tags: none; N-terminal Met removed in E. coli; sgRNA scaffold, no U1A site
T1 chain: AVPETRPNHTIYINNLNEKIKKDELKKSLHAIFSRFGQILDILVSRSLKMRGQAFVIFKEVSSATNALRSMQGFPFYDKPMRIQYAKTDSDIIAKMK
Text: (§1) Biolayer interferometry (BLI) was used to assess the capacity of Cas9 RNPs containing sgRNA variants to bind U1A (or U1A-ppTG21 conjugates) as well as to assess the persistence of any binding events. These assays approximated the experimental design described in Richardson et al. (Nat Biotechnol. 2016 March; 34(3):339-44. doi: 10.1038/nbt.3481). These experiments relied on a Cas9 protein covalently, site-specifically labeled with a biotin moiety, allowing loading onto a BLI sensor bearing streptavidin. The instrument used was an Octet Red 384. The buffer used was 20 mM HEPES, pH 7.5, 100 mM KCl, 10% Glycerol, 0.01 mg/ml Heparin, 0.01% IGEPAL. The loading step of the experiment used Cas9 RNP at 20 nM in the wells. U1A wells contained 100 nM, 330 nM, or 1 μM U1A. […] In contrast to the noSL RNP experiment, the SLabub RNP was markedly bound by the U1A, and the binding persisted for the ˜2000 s (˜33 min) duration of the dissociation phase (FIG. 15A). The SLabub RNP experiment was repeated using U1A-ppTG21 conjugate in the wells at concentrations spanning 100 nM to 6 μM (FIG. 15B).

[2] = molecular target: T2, U1A-ppTG21 conjugate (U1A Cys variant disulfide-linked to ppTG21 endosomolytic peptide); number of ppTG21 not … (Homo sapiens, UniProt P09012 SEQ:2-98); experiment: BLI; biotin-Cas9 RNP immobilised; 0.1-6 uM conjugate; binding persists ~900 s; details: sgRNA with three U1A stem-loop hairpins
T2 chain: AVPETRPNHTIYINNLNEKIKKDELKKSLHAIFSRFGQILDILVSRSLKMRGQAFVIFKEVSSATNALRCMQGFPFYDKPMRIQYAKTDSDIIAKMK
Text: as §1

[3] = molecular target: T1, U1A N-terminal RNA-binding domain …; experiment: BLI; biotin-Cas9 RNP immobilised; 0.1-1 uM U1A; binding persists ~2000 s; 20 mM HEPES pH 7.5, 100 mM KCl, 0.01 mg/ml heparin; details: tags: none; N-terminal Met removed in E. coli; sgRNA with three U1A stem-loop hairpins
Text: as §1

[4] = molecular target: T2, U1A-ppTG21 conjugate (U1A Cys variant …); experiment: BLI; biotin-RNA immobilised; 0.33-333 nM conjugate; binding persists ~2000 s; details: label: 5' biotin; hairpin
Text: as §1
(§2) The concentrations of U1A-ppTG21 conjugate in the wells covered the range of 0.33-333 nM. Substantial binding was observed between the U1 stem loop and the U1A-ppTG21 conjugate, and this binding persisted for the ˜2000 s (˜33 min) of the dissociation phase (FIG. 15C).

[5] = molecular target: T2, U1A-ppTG21 conjugate (U1A Cys variant …); experiment: BLI; biotin-RNA immobilised; 0.33-333 nM conjugate; not substantially bound; details: label: 5' biotin; hairpin
Text: as §1, §2

B1: noSL sgRNA (EMX1) (ssRNA)
RNA: GUCACCUCCAAUGACUAGGGGUUUAAGAGCUAUGCUGGAAACAGCAUAGCAAGUUUAAAUAAGGCUAGUCCGUUAUCAACUUGAAAAAGUGGCACCGAGUCGGUGCUUUUUUU
binding result [1]: no binding

B2: SLabub sgRNA (EMX1) (ssRNA)
RNA: GUCACCUCCAAUGACUAGGGGUUUAAGAGCUAUGGAUCAUUGCACUCCGAUCCAUAGCAAGUUUAAAUAAGGCUAGUCCGUUAUCAACUUGUCGAGGCUAAGUCGCAUUGCACUCCGCGACAGCACAAGCCCGCUGCCAUUGCACUCCGGCAGCAGGGAACUCGUCAAGUGGCACCGAGUCGGUGCUUUUUUU
binding result [2]: binds | binding result [3]: binds

AAUCCAUUGCACUCCGGAUU (ssRNA) [U1 RNA stem loop 2]
binding result [4]: binds

AAUCCAUUCAUGUACCGGAUU (ssRNA) [U2 RNA stem loop negative control]
binding result [5]: no binding
